From publication PMC3727925 (Molecular Biology of the Cell, 2013) come the findings set out here.

The assay concerns the target T1, CHMP3 (human, UniProt Q9Y3E7 1-222).
T1 sequence (looked up): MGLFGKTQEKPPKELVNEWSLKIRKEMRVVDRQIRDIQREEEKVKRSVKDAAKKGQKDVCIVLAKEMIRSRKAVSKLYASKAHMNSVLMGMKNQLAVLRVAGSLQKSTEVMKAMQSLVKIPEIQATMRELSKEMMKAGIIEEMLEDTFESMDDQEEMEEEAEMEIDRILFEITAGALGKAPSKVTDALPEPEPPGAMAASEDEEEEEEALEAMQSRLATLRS
Put plainly: negative-stain electron microscopy.

B1: CHMP2A (natural protein, human, UniProt O43633 1-222, looked up)
chain: MDLLFGRRKTPEELLRQNQRALNRAMRELDRERQKLETQEKKIIADIKKMAKQGQMDAVRIMAKDLVRTRRYVRKFVLMRANIQAVSLKIQTLKSNNSMAQAMKGVTKAMGTMNRQLKLPQIQKIMMEFERQAEIMDMKEEMMNDAIDDAMGDEEDEEESDAVVSQVLDELGLSLTDELSNLPSTGGSLSVAAGGKKAEAAASALADADADLEERLKNLRRD
Regarding B1, the binding result is “binds”.
